One assay deals with T1, rat CASPR/p190 (rat, UniProt P97846 21-1381).
T1 construct: Endogenous in GH3 cells and rat brain, or expressed from pCM190R in COS7 cells; read from membrane lysates; no cleavage site stated; also called Contactin ASsociated PRotein; 190 kDa protein
T1 sequence: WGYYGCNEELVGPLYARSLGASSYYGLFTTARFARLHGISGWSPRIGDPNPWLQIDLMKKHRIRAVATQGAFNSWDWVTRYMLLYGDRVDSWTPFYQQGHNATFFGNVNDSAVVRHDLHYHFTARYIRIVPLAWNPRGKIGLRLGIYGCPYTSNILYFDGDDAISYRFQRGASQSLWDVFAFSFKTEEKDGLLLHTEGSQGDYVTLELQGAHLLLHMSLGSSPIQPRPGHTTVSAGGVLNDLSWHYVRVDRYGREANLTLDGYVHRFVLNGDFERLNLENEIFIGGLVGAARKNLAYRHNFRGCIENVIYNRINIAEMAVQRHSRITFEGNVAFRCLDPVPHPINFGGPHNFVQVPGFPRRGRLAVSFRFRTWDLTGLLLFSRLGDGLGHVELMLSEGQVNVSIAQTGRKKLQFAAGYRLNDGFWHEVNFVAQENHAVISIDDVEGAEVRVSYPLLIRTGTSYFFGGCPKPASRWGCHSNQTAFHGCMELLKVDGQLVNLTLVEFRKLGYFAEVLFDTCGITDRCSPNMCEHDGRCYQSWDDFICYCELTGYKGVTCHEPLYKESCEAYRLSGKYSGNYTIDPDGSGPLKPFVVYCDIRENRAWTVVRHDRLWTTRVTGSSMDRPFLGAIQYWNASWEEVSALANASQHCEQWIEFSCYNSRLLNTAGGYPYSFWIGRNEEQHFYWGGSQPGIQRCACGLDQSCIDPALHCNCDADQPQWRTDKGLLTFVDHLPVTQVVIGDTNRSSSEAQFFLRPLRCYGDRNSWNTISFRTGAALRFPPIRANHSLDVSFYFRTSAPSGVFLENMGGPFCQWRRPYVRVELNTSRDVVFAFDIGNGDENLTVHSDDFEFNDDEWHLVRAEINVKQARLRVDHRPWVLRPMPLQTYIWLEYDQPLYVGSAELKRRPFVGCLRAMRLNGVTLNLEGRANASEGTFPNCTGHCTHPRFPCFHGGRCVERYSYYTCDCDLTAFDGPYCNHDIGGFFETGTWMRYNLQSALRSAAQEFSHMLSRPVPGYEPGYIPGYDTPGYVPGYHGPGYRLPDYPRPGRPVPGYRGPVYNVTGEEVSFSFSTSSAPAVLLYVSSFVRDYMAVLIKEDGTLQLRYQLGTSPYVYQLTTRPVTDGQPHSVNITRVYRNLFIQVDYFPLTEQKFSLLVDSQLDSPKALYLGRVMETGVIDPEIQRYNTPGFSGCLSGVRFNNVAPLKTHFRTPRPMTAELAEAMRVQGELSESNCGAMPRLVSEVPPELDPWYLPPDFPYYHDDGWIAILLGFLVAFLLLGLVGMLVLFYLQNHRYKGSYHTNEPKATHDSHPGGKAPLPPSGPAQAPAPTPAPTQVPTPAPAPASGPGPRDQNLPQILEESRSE
The assay can be described thus: bioaffinity precipitation from membrane extracts of labeled GH3 cells.

For assay [1], the target named is T2, human contactin of IMR-32 neuroblastoma cells (140 kDa protein) (human, UniProt Q12860 21-993, GPI-anchored).
T2 construct: whole, on cells; also called p140
T2 sequence (looked up): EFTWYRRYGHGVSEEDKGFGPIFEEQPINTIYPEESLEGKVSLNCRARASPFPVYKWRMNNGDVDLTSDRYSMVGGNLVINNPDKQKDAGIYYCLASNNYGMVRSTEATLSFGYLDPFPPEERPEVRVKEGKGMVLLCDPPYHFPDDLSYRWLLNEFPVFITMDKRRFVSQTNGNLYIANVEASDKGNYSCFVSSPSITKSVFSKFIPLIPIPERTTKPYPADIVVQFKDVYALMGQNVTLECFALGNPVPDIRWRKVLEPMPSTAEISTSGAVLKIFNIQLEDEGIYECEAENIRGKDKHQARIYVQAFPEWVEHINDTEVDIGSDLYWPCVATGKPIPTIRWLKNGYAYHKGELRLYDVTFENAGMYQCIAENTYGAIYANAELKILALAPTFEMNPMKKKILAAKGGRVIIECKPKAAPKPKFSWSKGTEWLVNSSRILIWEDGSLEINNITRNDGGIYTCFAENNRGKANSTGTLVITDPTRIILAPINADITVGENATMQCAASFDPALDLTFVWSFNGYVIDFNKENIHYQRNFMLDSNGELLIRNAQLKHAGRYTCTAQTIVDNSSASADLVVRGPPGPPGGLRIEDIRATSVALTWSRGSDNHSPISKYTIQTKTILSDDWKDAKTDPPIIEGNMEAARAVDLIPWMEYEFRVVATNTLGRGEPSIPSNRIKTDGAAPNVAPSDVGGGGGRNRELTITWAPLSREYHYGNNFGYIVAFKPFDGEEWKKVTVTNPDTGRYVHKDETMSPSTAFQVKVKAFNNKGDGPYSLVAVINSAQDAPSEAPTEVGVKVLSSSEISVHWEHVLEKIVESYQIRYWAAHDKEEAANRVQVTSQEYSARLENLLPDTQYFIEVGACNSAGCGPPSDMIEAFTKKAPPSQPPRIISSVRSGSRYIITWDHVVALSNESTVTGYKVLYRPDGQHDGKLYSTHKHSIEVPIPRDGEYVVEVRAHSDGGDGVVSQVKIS
Briefly: cross-linking (DTSSP) on IMR-32 cells, protein A precipitation, SDS-PAGE. As for the experimental part: Cells were incubated for four hours with medium containing, the different Fc-fusion proteins. Following three washes with cold PBS/Ca (1 mM CaCl₂ in PBS), the cells were incubated for additional 30 minutes with PBS/Ca containing 1 mM DTSSP (3,3′-Dithiobis[sulfosuccinimidyl--propionate], Pierce, Rockford, Ill.). Free cross-linker was removed by additional PBS wash followed by quenching with 100 mM glycine in TBS for 10 minutes at 4° C. Cell lysates were made in SBN lysis buffer (Peles et al., 1991, EMBO J., 10:2077-2086), and Sepharose-protein A was added to the cleared lysates. Following two hours incubation at 4° C., the beads were washed three times with HNTG buffer (Peles et al., 1991, EMBO J., 10:2077-2086), and the bound proteins were eluted by adding SDS PAGE sample buffer containing 5% β-mercaptoethanol and further incubation for 10 minutes at 95° C.
To characterize ligands for RPTPβ, a reversible cross-linker ([…]) was used, and proteins were sought that specifically bound to βC-Fc. Two of the cell lines that bound βC-Fc (IMR32 and GH3), as well as COS7 cells as a control, were allowed to react with the fusion proteins containing the FNIII or the CAH domains followed by cross-linking and precipitation of the complexes. […] No reactivity was detected in control cells or in cells incubated with βF-Fc. […]

B1: βF-Fc (FNIII domain of RPTPβ fused to human IgG1-Fc) (Fc fusion)
chain: not shown
notes: domain: FNIII; also called the FNIII domain alone; fibronectin domain alone; not shown: human IgG1 Fc (vector pCNγ1)
As for B1, the binding result (with rat CASPR/p190; in assay [1]) was “no binding” in each case.
